Results taken from doi:10.1101/2021.10.05.463282 (2021).

B1: B8-IgG1 (antibody, V domains shown)
VH: EVQLVQSGAEVKKPGSSVKVSCKASGGTFSNYGISWVRQAPGQGLEWMGRILPTFGTANSAQKFQGRVTITADESTGTAYMELRSLRSEDTAVYYCAKEGLAFLGYGMDVWGQGTTVTVSS
VL: EIVLTQSPGTLSLSPGERATLSCRASQSVSSYLAWYQQKPGQAPRLLIYDASNRATGIPARFIGSGSGTDFTLTISSLEPEDFAVYFCQQRSNWPLTFGGGTKVEIK
B2: B8-mIgA1 (antibody, V domains shown)
VH: EVQLVQSGAEVKKPGSSVKVSCKASGGTFSNYGISWVRQAPGQGLEWMGRILPTFGTANSAQKFQGRVTITADESTGTAYMELRSLRSEDTAVYYCAKEGLAFLGYGMDVWGQGTTVTVSS
VL: EIVLTQSPGTLSLSPGERATLSCRASQSVSSYLAWYQQKPGQAPRLLIYDASNRATGIPARFIGSGSGTDFTLTISSLEPEDFAVYFCQQRSNWPLTFGGGTKVEIK
B3: B8-dIgA2 (antibody, V domains shown)
VH: EVQLVQSGAEVKKPGSSVKVSCKASGGTFSNYGISWVRQAPGQGLEWMGRILPTFGTANSAQKFQGRVTITADESTGTAYMELRSLRSEDTAVYYCAKEGLAFLGYGMDVWGQGTTVTVSS
VL: EIVLTQSPGTLSLSPGERATLSCRASQSVSSYLAWYQQKPGQAPRLLIYDASNRATGIPARFIGSGSGTDFTLTISSLEPEDFAVYFCQQRSNWPLTFGGGTKVEIK
B4: B8-dIgA1 (antibody, V domains shown)
VH: EVQLVQSGAEVKKPGSSVKVSCKASGGTFSNYGISWVRQAPGQGLEWMGRILPTFGTANSAQKFQGRVTITADESTGTAYMELRSLRSEDTAVYYCAKEGLAFLGYGMDVWGQGTTVTVSS
VL: EIVLTQSPGTLSLSPGERATLSCRASQSVSSYLAWYQQKPGQAPRLLIYDASNRATGIPARFIGSGSGTDFTLTISSLEPEDFAVYFCQQRSNWPLTFGGGTKVEIK
B5: B8-mIgA2 (antibody, V domains shown)
VH: EVQLVQSGAEVKKPGSSVKVSCKASGGTFSNYGISWVRQAPGQGLEWMGRILPTFGTANSAQKFQGRVTITADESTGTAYMELRSLRSEDTAVYYCAKEGLAFLGYGMDVWGQGTTVTVSS
VL: EIVLTQSPGTLSLSPGERATLSCRASQSVSSYLAWYQQKPGQAPRLLIYDASNRATGIPARFIGSGSGTDFTLTISSLEPEDFAVYFCQQRSNWPLTFGGGTKVEIK

Biological target: recombinant RBD derived from SARS-CoV-2 (Sino Biological) (SARS-CoV-2, ancestral (Wuhan-Hu-1) …, UniProt P0DTC2)
Test: ELISA

Row | Binder | binding result
1 | B1 | binds
2 | B2 | binds
3 | B3 | binds
4 | B4 | binds
5 | B5 | binds
